Source: patent US20210380702A1 (Regeneron, published 2021)
Numbering of substitutions follows the chain as printed.

B1: H2aM8314N (antibody, mouse IgG2, V domains shown)
VH: EVQLVESGGGVVRPGGSLRLSCAASGFTFDDYGMTWVRQAPGRGLEWVSGIHWHGKRTGYADSVKGRFTISRDNAKKSLYLQMNSLKGEDTALYHCVRGGMSTGDWFDPWGQGTLVIVSS
VL: DIQMTQSPSSLSASLGDRVTITCRASQSINSYLNWYQQKPGKAPKLLIYVASSLQSGVPSRFSGSGSGTEFTLTISNLQPEDFATYYCQQSYSTPPITFGQGTRLEIK
notes: also called H2M8314N
B2: H1H8314N (antibody, human IgG1, V domains shown)
VH: B1 VH
VL: B1 VL
B3: H2aM8321N (antibody, mouse IgG2, V domains shown)
VH: EERLVESGGDLVQPGGSLRLSCAASGITVGTNYMNWVRQAPGKGLEWVSVISSGGNTHYADSVKGRFIMSRQTSKNTLYLQMNSLETEDTAVYYCARGIRGLDVWGQGTMVTVSS
VL: B1 VL with L15V, I29M, N30S, K42R, Y49F, V50A, E70D, N77S
notes: also called H2M8321N
B4: H2aM8317N (antibody, mouse IgG2, V domains shown)
VH: EVQLVESGGGLVQPGGSLRLSCAASGFTVGSNYMNWVRQAPGKGLEWVSVIYSGGSTYYADSVKGRFTISRLTSKNTLYLQMSSLRPEDTAVYYCARGIRGLDVWGQGTTVTVSS
VL: B1 VL with L15V, S28T, S31I, K42R, K45R, V50A, E70D, N77S, Q89H
notes: also called H2M8317N
B5: H2aM8310N (antibody, mouse IgG2, V domains shown)
VH: QVQLVQSGAEVKKPGASVQVSCKASGYSFTGYYIHWVRQAPGQGLEWMGWINPNSGTKKYAHKFQGRVTMTRDTSIDTAYMILSSLISDDTAVYYCARDEDWNFGSWFDSWGQGTLVTVSS
VL: DIVMTQTPLSSPVTLGQPASISCRSSQTLVHGDGNTYLSWIQQRPGQPPRLLIYKVSNQFSGVPDRFSGSGAGTDFTLKISRVEAEDVGLYFCMQATHFPITFGQGTRLEIK
notes: also called H2M8310N
B6: H2aM8312N (antibody, mouse IgG2, V domains shown)
VH: QVHLVQSGAEVKKPGASVKVSCKASGYTFTGYYIHWVRQAPGHGLEWMGWLNPNTGTTKYIQNFQGRVTMTRDTSSSTAYMELTRLRSDDTAVYYCARDEDWNYGSWFDTWGQGTLVTVSS
VL: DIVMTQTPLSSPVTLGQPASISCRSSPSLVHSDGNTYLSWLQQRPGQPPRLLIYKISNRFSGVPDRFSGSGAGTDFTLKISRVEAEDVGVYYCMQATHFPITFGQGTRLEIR
notes: also called H2M8312N
B7: H2aM8323N (antibody, mouse IgG2, V domains shown)
VH: QVQLVQSGAEVKMPGSSVRVSCKASGGIFSSSTISWVRQAPGQGLEWMGEIIPVFGTVNYAQKFQDRVIFTADESTTTAYMELSSLKSGDTAVYFCARNWGLGSFYIWGQGTMVTVSS
VL: EIVLTQSPGTLSLSPGERATLSCRASQSFNFNYLAWYQQKPGQAPRLLIYGASSRATGIPDRFSGSGSGTDFTLTINRLEPEDFGVFYCQQYESAPWTFGQGTKVEIK
notes: also called H2M8323N
B8: H1H8323N (antibody, human IgG1, V domains shown)
VH: B7 VH
VL: B7 VL
B9: H2aM8309N (antibody, mouse IgG2, V domains shown)
VH: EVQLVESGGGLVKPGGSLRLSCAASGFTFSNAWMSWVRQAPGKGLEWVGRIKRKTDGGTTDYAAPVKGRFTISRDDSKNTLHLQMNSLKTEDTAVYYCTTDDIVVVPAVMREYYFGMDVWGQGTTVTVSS
VL: DIQMTQSPSSLSASVGDRVTITCRTSQGIRNDLGWYQQKPGKAPKRLIYAASSLQSGVPSRFSGSGSGTEFTLTISSLQPEDFATYYCLQHNNYPYTFGQGTKLEIK
notes: also called H2M8309N
B10: H1H9329P (antibody, human IgG1, V domains shown)
VH: EVQLVESGGGLVQSGGSLRLSCAASGFTFSSYWMSWVRQAPGKGLEWVANIKQDGSEKYYVDSVKGRFTISRDNAKNSLYLQMNSLRADDTAVYYCARDDIVVVPAPMGYYYYYFGMDVWGQGTTVTVSS
VL: B9 VL with T25A, N93S

Key:
[1] = target: T1, recombinant human PD-L1 (amino acids 19-239 of NP_054862.1) with a C-terminal myc-myc-hexahistidine tag (human); test: SPR (Biacore), mAb captured, 37C
T1 construct: also called hPD-L1-MMH; hPD-L1-MMH Monomer
Protocol: (§1) Binding association and dissociation rate constants (kₐ and kd, respectively), equilibrium dissociation constants and dissociation half-lives (KD and t_{1/2}, respectively) of antigen binding to purified anti-PD-L1 monoclonal antibodies were determined using a real-time surface plasmon resonance biosensor assay on a Biacore 4000 instrument. The Biacore sensor surface was either derivatized with polyclonal rabbit anti-mouse antibody (GE, #BR-1008-38) or with monoclonal mouse anti-human Fc antibody (GE, #BR-1008-39) to capture approximately 200-300 RUs of anti-PD-L1 monoclonal antibodies, expressed with either a mouse Fc or with human Fc, respectively. […] Different concentrations of PD-L1 reagents were injected over the anti-PD-L1 monoclonal antibody captured surface at a flow rate of 30 μL/min. The binding of the PD-L1 reagents to the captured monoclonal antibodies was monitored for 3 to 4 minutes while the dissociation of antibody bound PD-L1 reagents was monitored for 10 minutes in HBST running buffer (0.01 M HEPES pH 7.4, 0.15 M NaCl, 3 mM EDTA, 0.05% v/v Surfactant tween-20). Experiments were performed at either 25° C. or 37° C. Kinetic association (kₐ) and dissociation (kd) rate constants were determined by processing and fitting the data to a 1:1 binding model using Scrubber 2.0c curve fitting software. Binding dissociation equilibrium constants (KD) and dissociative half-lives (t_{1/2}) were then calculated from the kinetic rate constants as: KD (M)=kd/kₐ and t_{1/2} (min)=[In2/(60*kd)].

Human PD-L1 Dimer [2] = target: T2, Human PD-L1 Dimer (human, UniProt Q9NZQ7 19-239); test: SPR (Biacore), mAb captured, 37C
T2 construct: also called hPD-L1 dimer; hPD-L1-hFc
Protocol: as §1

[3] = target: T3, recombinant cynomolgus monkey PD-L1 with a C-terminal myc-myc-hexahistidine tag (cynomolgus monkey (Macaca fascicularis)); test: SPR (Biacore), mAb captured, 37C
T3 construct: also called MfPD-L1-MMH; MfPD-L1-MMH Monomer
Protocol: as §1

Human PD-L1 Dimer [4] = target: T2, Human PD-L1 Dimer; test: SPR (Biacore), mAb captured, 25C
Protocol: as §1

[5] = target: T3, recombinant cynomolgus monkey PD-L1 …; test: SPR (Biacore), mAb captured, 25C
Protocol: as §1

[6] = target: T4, recombinant cynomolgus monkey PD-L1 with a C-terminal mouse IgG2a Fc tag (cynomolgus monkey (Macaca fascicularis)); test: SPR (Biacore), mAb captured, 25C
T4 construct: also called MfPD-L1-mFc; monkey PD-L1-mFc
Protocol: as §1

T4 sequence (chain, as listed by the source limits assumed): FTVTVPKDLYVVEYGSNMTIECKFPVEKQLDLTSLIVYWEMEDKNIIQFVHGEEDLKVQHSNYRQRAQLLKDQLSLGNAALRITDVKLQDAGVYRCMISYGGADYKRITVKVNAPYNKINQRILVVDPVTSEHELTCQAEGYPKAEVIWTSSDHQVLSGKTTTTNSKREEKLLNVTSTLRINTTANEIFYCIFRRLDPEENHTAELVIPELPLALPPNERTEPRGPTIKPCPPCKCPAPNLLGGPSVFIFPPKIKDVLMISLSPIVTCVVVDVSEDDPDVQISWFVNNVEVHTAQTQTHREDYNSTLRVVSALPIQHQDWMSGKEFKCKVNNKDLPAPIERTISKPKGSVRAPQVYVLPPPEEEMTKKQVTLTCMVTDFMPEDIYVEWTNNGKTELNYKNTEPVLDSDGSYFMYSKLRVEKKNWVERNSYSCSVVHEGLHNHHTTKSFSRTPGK
T2 sequence (Q9NZQ7 19-239): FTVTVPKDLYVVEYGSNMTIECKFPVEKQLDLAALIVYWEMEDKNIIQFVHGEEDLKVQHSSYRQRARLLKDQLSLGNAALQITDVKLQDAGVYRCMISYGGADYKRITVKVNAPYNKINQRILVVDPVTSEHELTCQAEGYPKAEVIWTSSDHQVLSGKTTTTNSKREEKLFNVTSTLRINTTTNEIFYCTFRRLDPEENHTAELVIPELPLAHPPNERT
T1 sequence (chain, as listed by the source limits assumed): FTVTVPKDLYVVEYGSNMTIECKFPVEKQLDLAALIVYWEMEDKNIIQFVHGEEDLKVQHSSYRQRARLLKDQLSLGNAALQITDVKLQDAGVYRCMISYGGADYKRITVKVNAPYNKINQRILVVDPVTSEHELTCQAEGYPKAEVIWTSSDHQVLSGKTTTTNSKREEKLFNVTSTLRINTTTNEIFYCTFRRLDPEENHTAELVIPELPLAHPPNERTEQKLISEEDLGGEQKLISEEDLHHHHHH
T3 sequence (chain, as listed by the source limits assumed): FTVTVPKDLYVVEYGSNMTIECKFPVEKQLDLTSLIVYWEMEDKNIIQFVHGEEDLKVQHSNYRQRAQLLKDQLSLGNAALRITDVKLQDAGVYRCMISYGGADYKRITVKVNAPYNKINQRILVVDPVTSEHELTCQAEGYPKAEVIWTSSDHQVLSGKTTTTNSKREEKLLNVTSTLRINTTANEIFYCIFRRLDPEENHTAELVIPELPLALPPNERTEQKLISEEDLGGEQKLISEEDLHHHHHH

Kd [1] [nM] | koff [1] [s⁻¹] | kon [1] [M⁻¹ s⁻¹] | t1/2 [1] [min] | Kd (Human PD-L1 Dimer [2]) [nM] | koff (Human PD-L1 Dimer [2]) [s⁻¹] | kon (Human PD-L1 Dimer [2]) [M⁻¹ s⁻¹] | t1/2 (Human PD-L1 Dimer [2]) [min] | Kd [3] [nM] | koff [3] [s⁻¹] | kon [3] [M⁻¹ s⁻¹] | t1/2 [3] [min] | Kd (Human PD-L1 Dimer [4]) [nM] | koff (Human PD-L1 Dimer [4]) [s⁻¹] | kon (Human PD-L1 Dimer [4]) [M⁻¹ s⁻¹] | t1/2 (Human PD-L1 Dimer [4]) [min] | Kd [5] [nM] | koff [5] [s⁻¹] | kon [5] [M⁻¹ s⁻¹] | t1/2 [5] [min] | other results | Binder
0.14 | 0.00015 | 1.07e+06 | 77 | 0.00591 | 2.3e-05 | 3.89e+06 | 503 | 0.142 | 0.000152 | 1.07e+06 | 76 | 0.00426 | 1.35e-05 | 3.16e+06 | 859 | 0.0724 | 7e-05 | 966000 | 165 | – | B1
– | – | – | – | – | – | – | – | – | – | – | – | – | – | – | – | – | – | – | – | Kd [6]: 0.0263 nM; koff [6]: 6.77e-05 s⁻¹; kon [6]: 2.58e+06 M⁻¹ s⁻¹; t1/2 [6]: 171 min | B2
91.6 | 0.00929 | 101000 | 1.2 | 0.285 | 0.000269 | 946000 | 43 | 51.1 | 0.00816 | 159000 | 1.4 | 0.353 | 0.000287 | 813000 | 40 | 29.9 | 0.00402 | 134000 | 2.9 | – | B3
647 | 0.0585 | 90300 | 0.2 | 1.36 | 0.000657 | 481000 | 18 | 179 | 0.0476 | 266000 | 0.2 | 1.25 | 0.00045 | 359000 | 26 | 226 | 0.0238 | 106000 | 0.5 | – | B4
9.7 | 0.00128 | 132000 | 9 | 0.258 | 0.000124 | 481000 | 93 | 2.27 | 0.00107 | 471000 | 11 | 0.183 | 5.71e-05 | 313000 | 202 | 2.97 | 0.000306 | 103000 | 38 | – | B5
45.3 | 0.00403 | 88900 | 2.9 | 0.732 | 0.000261 | 357000 | 44 | 32.7 | 0.00332 | 101000 | 3.5 | 0.413 | 0.000102 | 247000 | 113 | 8.42 | 0.000597 | 70900 | 19 | – | B6
0.497 | 0.000684 | 1.38e+06 | 17 | 0.028 | 0.000121 | 4.32e+06 | 96 | 29.5 | 0.0282 | 956000 | 0.4 | 0.00704 | 2.05e-05 | 2.91e+06 | 565 | 15.9 | 0.00868 | 547000 | 1.3 | – | B7
– | – | – | – | – | – | – | – | – | – | – | – | – | – | – | – | – | – | – | – | Kd [6]: 0.0231 nM; koff [6]: 6.16e-05 s⁻¹; kon [6]: 2.67e+06 M⁻¹ s⁻¹; t1/2 [6]: 188 min | B8
29.7 | 0.0314 | 1.06e+06 | 0.4 | 0.0376 | 0.000166 | 4.41e+06 | 70 | 26.3 | 0.0281 | 1.07e+06 | 0.4 | 0.0429 | 0.000144 | 3.36e+06 | 80 | 14.9 | 0.013 | 870000 | 0.9 | – | B9
117 | 0.329 | 2.82e+06 | 0.04 | 0.689 | 0.00267 | 3.87e+06 | 4.3 | 137 | 0.364 | 2.66e+06 | 0.03 | 0.259 | 0.000768 | 2.97e+06 | 15 | 76.9 | 0.135 | 1.76e+06 | 0.09 | Kd [6]: 0.386 nM; koff [6]: 0.000672 s⁻¹; kon [6]: 1.74e+06 M⁻¹ s⁻¹; t1/2 [6]: 17 min | B10
